According to US20200369747A1 (ICHNOS SCIENCES, published 2020):

Target: CD3ε on Jurkat-NFAT responder cells (UniProt P07766 23-207)
Test: cell-based or functional assay

Chain of CD3ε on Jurkat-NFAT responder cells (P07766 23-207): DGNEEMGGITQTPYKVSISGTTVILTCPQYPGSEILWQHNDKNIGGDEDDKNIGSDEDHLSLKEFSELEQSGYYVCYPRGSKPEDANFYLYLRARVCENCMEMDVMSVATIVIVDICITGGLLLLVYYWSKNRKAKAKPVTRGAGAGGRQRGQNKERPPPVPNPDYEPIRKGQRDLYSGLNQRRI

- EC50 of NFAT-luciferase luminescence (Jurkat-NFAT responder cells co-incubated with SK-BR-3 target cells); sample: BEAT®3 High pH T2h: 0.0065 µg/ml
- EC50 of NFAT-luciferase luminescence (Jurkat-NFAT responder cells co-incubated with SK-BR-3 target cells); sample: BEAT®3 High pH T4h: 0.0074 µg/ml
B1: BEAT®3 (bispecific antibody, human IgG1, kappa, L234A L235A)
chain 1: EVQLVESGGGLVQPGGSLRLSCAASGFTFNTYAMNWVRQAPGKGLEWVARIRSKYNNYATYYADSVKSRFTISRDDSKNTLYLQMNSLRAEDTAVYYCVRHGNFGNSYVSYFAYWGQGTTVTVSSGGGGSGGGGSGGGGSEIVVTQSPATLSVSPGERATLSCRSSTGAVTESNYANWVQEKPGQAFRGLIGGANKRAPGVPARFSGSLSGDEATLTISSLQSEDFAVYYCALFYSNTWVFGQGTKLEIKGGGGTQVQLQESGPGLVKPSETLSLTCTVSGGSVSSGDYYWTWIRQSPGKGLEWIGHIYYSGNTNYNPSLKSRLTISIDTSKTQFSLKLSSVTAADTAIYYCVRDRVTGAFDIWGQGTMVTVSSASTKGPSVFPLAPSSKSTSGGTAALGCLVKDYFPEPVTVSWNSGALTSGVHTFPAVLQSSGLYSLSSVVTVPSSSLGTQTYICNVNHKPSNTKVDKKVEPKSCDKTHTCPPCPAPEAAGGPSVFLFPPKPKDTLMISRTPEVTCVVVDVSHEDPEVQFKWYVDGVEVHNAKTKPREEQYNSTFRVVSVLTVLHQDWLNGKEYKCKVSNKALPAPIEKTISKTKGQPREPAVYTLPPSREEMTKNQVKLVCLVTGFYPSDIAVEWESSGQPENNYYTTPPMLDSDGSFSLVSWLNVDKSRWQQGNIFSCSVMHEALHNRFTQKSLSLSPG
chain 2: not shown
chain 3: DKTHTCPPCPAPEAAGGPSVFLFPPKPKDTLMISRTPEVTCVVVDVSHEDPEVKFNWYVDGVEVHNAKTKPREEQYNSTYRVVSVLTVLHQDWLNGKEYKCKVSNKALPAPIEKTISKAKGQPREPEVATFPPSRDELTKNQVTLVCLVTGFYPSDIAVEWESNGQPENNYKTDPPLLESDGSFALSSRLRVDKSRWQQGNVFSCSVMHEALHNHYTQKSLSLSPG
